Assay [1] has as its target His-tagged IDO1 human recombinant protein (71182, BPS Biosciences) (human) (UniProt P14902). The assay is described as follows: ELISA: biotin-PEG3 macrocycle on NeutrAvidin plate, His-tagged human IDO1 titrated, AP-conjugated anti-6XHis antibody, fluorescence. Background: In an ELISA, binding on a coated surface is turned into a signal by an enzyme label.
The target is the same in assay [2]. The assay is described as follows: ELISA, immobilized macrocycle, human IDO1 titrated.
Assay [3] has the same target. The assay is described as follows: sandwich ELISA: biotinylated macrocycle on NeutrAvidin plate, His-tagged IDO1 titrated, anti-6XHis-AP detection.
In assay [4] the target is murine IDO1 protein (mouse) (UniProt P28776). The experiment in a line: ELISA, immobilized macrocycle, mouse IDO1 titrated.
Chain of murine IDO1 protein (mouse) (P28776 2-406 limits assumed): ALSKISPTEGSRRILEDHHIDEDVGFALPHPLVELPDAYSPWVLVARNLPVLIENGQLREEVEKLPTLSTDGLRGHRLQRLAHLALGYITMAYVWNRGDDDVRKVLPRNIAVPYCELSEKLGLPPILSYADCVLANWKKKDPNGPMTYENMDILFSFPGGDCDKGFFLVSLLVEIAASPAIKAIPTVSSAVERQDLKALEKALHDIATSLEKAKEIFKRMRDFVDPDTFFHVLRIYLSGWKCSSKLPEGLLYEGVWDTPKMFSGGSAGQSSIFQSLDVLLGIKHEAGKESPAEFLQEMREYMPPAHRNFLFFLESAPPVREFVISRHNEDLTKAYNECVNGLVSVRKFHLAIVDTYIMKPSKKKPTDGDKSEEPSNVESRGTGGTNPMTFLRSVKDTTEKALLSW
Assay [5] has as its target His-tagged IDO1 human recombinant protein (71182, BPS Biosciences) (human) (UniProt P14902). The assay is described as follows: cell-based or functional assay.
Assay [6] has the same target. The experiment in a line: ELISA: biotinylated peptide on NeutrAvidin plate, 6xHis-tagged human IDO1 titrated.
The target is the same in assay [7]. The assay is described as follows: sandwich ELISA: 200 nM biotinylated macrocycle immobilized on NeutrAvidin plate, His-tagged IDO1 titrated, anti-6XHis-AP detection.
Assay [8] shares this target. The assay is described as follows: binding analysis, method not named.

Some results are limits rather than exact numbers.

Chain of His-tagged IDO1 human recombinant protein (71182, BPS Biosciences) (human) (P14902 2-403 limits assumed): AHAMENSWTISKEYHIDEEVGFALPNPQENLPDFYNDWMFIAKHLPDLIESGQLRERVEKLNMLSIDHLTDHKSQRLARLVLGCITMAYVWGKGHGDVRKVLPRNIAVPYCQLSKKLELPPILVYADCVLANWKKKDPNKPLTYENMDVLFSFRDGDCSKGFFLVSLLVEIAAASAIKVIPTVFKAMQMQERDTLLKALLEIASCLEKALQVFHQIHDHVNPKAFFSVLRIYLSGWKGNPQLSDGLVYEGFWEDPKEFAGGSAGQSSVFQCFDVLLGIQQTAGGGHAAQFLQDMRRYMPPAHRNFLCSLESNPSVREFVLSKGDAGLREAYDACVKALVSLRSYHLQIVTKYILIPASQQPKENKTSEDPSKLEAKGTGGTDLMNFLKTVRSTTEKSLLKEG

The EC50 is the concentration that produces a half-maximal response. Consider n-f(Me-Trp)(F-Phe) (peptide), for which the concentration giving a half-maximal response (EC50) in assay [1] was determined as 128 nM.

As to apww(F-Phe) (peptide), the EC50 in assay [1] was 106 nM.

Turning to biotin-PEG3-Cy(nlw(Me-Trp)r) (peptide), the EC50 worked out at 51 nM in assay [2], 43 nM in assay [3] and 48 nM in assay [4].

Take fra(Me-Trp)s (peptide): the EC50 in assay [1] was 107 nM.

Turning to nlfa(F-Phe) (peptide), the EC50 in assay [1] is 69 nM.

pww(F-Phe) (peptide): in assay [1], the concentration giving a half-maximal response (EC50) stood at 104 nM.

For the substance alf(Me-Trp)(F-Phe) (peptide), the EC50 in assay [1] stood at 50 nM.

For the substance spwwa (peptide), the EC50 in assay [1] came out at 111 nM.

Take biotin-PEG3-Cy(spww(F-Phe)) (peptide): the results for the 50% effective concentration (EC50) in assay [2], in assay [3] and in assay [4] were 85 nM, 65 nM and 44 nM, respectively. In addition, the IC50, IDO1 Fluorogenic Inhibitor Screening Assay (enzyme inhibition) in assay [5] was greater than 40000 nM.

On to nlf(Me-Trp)a (peptide), for which the EC50 in assay [1] came to 104 nM.

On to Biotin-PEG3-Cy(saww(F-Phe)) (peptide), for which, in assay [1], the EC50 is 42 nM.

nla(Me-Trp)(F-Phe) (peptide): the EC50 in assay [1] was determined as 116 nM.

Take nlf(Me-Trp) (peptide): the EC50 in assay [1] was determined as 45 nM.

As for Biotin-PEG3-Cy(frf(Me-Trp)a) (peptide), the EC50 in assay [1] was determined as 57 nM.

For the substance biotin-PEG3-Cy(frf(Me-Trp)s) (peptide), the EC50 in assay [2] came out at 18 nM; in assay [6], 20 nM; in assay [3], 20 nM; in assay [4] it was 36 nM. Moreover, the IC50, IDO1 Fluorogenic Inhibitor Screening Assay (enzyme inhibition) in assay [5] is greater than 40000 nM.

“Biotin-PEG3-Cy(lf(Me-Trp)(F-Phe)) (peptide)”: the EC50 in assay [1] was 39 nM.

In the case of Biotin-PEG3-Cy(arf(Me-Trp)s) (peptide), the EC50 in assay [1] is 79 nM.

In the case of biotin-PEG3-Cy(nsfr(Me-Trp)) (peptide), the EC50 in assay [6] and in assay [3] was 124 nM throughout.

Consider Biotin-PEG3-Cy(sww(F-Phe)) (peptide), for which the EC50 in assay [1] came to 70 nM.

Take biotin-PEG3-Cy(rys(Me-Trp)r) (peptide): the values for the EC50 in assay [2], in assay [7] and in assay [4] were 91 nM, 81 nM and 17 nM, respectively. Further, in assay [5], the IC50, IDO1 Fluorogenic Inhibitor Screening Assay (enzyme inhibition) was greater than 40000 nM.

“biotin-PEG3-Cy(nlf(Me-Trp)(F-Phe)) (peptide)”: the EC50 in assay [2] worked out at 19 nM; in assay [8], 44 nM; in assay [3], 20 nM; in assay [4] it was 89 nM.

As to biotin-PEG3-Cy(nsh(F-Phe)r) (peptide), the EC50 in assay [3] stood at 68 nM.

Biotin-PEG3-Cy(spaw(F-Phe)) (peptide): the EC50 in assay [1] came out at 111 nM.

Consider spww (peptide), for which, in assay [1], the half-maximal effective concentration (EC50) turned out to be 144 nM.

As to naf(Me-Trp)(F-Phe) (peptide), the EC50 in assay [1] turned out to be 82 nM.

Biotin-PEG3-Cy(frf(Me-Trp)) (peptide): the EC50 in assay [1] turned out to be 12 nM.

For the origin of these results see patent US20200371101A1.
